# From publication PMC4240585, “Solution Structure of the SGTA Dimerisation Domain and Investigation of Its Interactions with the Ubiquitin-Like Domains of BAG6 and UBL4A” (PLoS ONE, 2014)
# T1: UBL domain of UBL4A (UBL4A_UBL), residues 1-74 (human, UniProt P11441 1-74, RED-NHS (amine reactive) dye, in the MST experiment only)
# T1 sequence (looked up): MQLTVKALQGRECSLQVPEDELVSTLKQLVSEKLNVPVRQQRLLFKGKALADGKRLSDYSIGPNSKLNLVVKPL
# Legend:
# [1] = target: T1, UBL domain of UBL4A (UBL4A_UBL), …; assay: MST; labelled UBL at 0.4 µM, unlabelled SGTA_NT 400 µM to 24.4 nM; 100 mM MES pH 6.0, 150 mM KCl, 0.5 mM TCEP; 25 °C; Monolith NT.115; conditions: both partners purified
# [2] = target: T1, UBL domain of UBL4A (UBL4A_UBL), …; assay: ITC; 30 °C, 100 mM MES pH 6.0, 200 mM KCl; 20 injections of 2 µL SGTA_NT (dimer, 500 µM) into UBL at 50 µM (monomer); independent binding sites model; conditions: both partners purified
# [3] = target: the molecule itself; assay: NMR solution structure; SGTA_NT dimer; mixed isotope labelling, filtered NOESY for intermolecular NOEs; 100 mM MES pH 6.0, 150 mM KCl, 35 °C; ARIA2.1
binder,measurement,setting,value
"SGTA N-terminal dimerisation domain (SGTA_NT), residues 1-69 (domain or fragment, UniProt O43765 1-69, looked up) MDNKKRLAYAIIQFLHDQLRHGGLSSDAQESLEVAIQCLETAFGVTVEDSDLALPQTLPEIFEAAATGK",Kd,[1],3.7 µM
same,stoichiometry N,[1],1 SGTA dimer: UBL monomer
same,Kd,[2],3 µM
same,dH,[2],5900 ± 110
same,stoichiometry N,[2],0.949 ± 0.013
same,stoichiometry N,[3],2
